The values below are quoted from earlier work in publication PMC8745658.

Broadly, the Kd is the concentration at which binding is half-saturated.

The data set concerns the target Cytochrome b5 soluble isoform (Homo sapiens) (UniProt P00167). Briefly: flavin autofluorescence.
Sequence of UniProt P00167 (P00167 2-98): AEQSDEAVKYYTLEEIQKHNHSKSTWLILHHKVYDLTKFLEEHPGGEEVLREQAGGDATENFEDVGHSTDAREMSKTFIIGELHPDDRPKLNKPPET

For the substance “Cytochrome b5 reductase soluble isoform (from UniProt P00387)”, the Kd was 0.5 µM.
